Consider 2 molecules from paper doi:10.1101/2023.01.20.524748, “A Novel Monoclonal Antibody Targeting a Large Surface of the Receptor Binding Motif Shows Pan-neutralizing SARS-CoV-2 Activity Including BQ.1.1 Variant” (bioRxiv, 2023).

The target in assay [1] is T1, RBD of the WH1 (ancestral) SARS-CoV-2 spike protein (Severe acute respiratory syndrome …, UniProt P0DTC2).
T1 construct: also called RBD from the ancestral variant; WH1 RBD
Put plainly: ELISA. The note with it: both partners purified.

The target in assay [2] is T2, B.1.1.529 (BA.1) S1 + S2 Trimer-His Recombinant Protein (SARS-CoV-2 Omicron B.1.1.529 (BA.1), strain).
T2 construct: also called Omicron BA.1 trimeric spike; BA.1 spike
In words: cryo-EM structure. The note with it: both partners purified.

B1: 17T2 mAb (human recombinant monoclonal IgG1) (antibody, V domains shown)
VH: QVQLVQSGPEVKKPGTSVKVSCKAPVFTFSISAVQWVRQARGQRLEWIGWIVVGSGNTNYAQNFQERVTITTDMSTGTVYMELSGLRSEDTAMYYCAAPYCNRTTCYDGFDLWGQGTMVTVSS
VL: EIVLTQSPGTLSLSPGERATLSCRASQSISSNYLAWYQQKPGQAPRLLIYGASSRATGIPDRFSGSGSGTDFTLSINRLEPEDFAMYYCQHYGGLSRWTFGQGTKVEIK
For the molecule B1, the binding result in assay [1] is “binds”.

B2: 17T2 Fab fragment (Fab, V domains shown)
VH: QVQLVQSGPEVKKPGTSVKVSCKAPVFTFSISAVQWVRQARGQRLEWIGWIVVGSGNTNYAQNFQERVTITTDMSTGTVYMELSGLRSEDTAMYYCAAPYCNRTTCYDGFDLWGQGTMVTVSS
VL: EIVLTQSPGTLSLSPGERATLSCRASQSISSNYLAWYQQKPGQAPRLLIYGASSRATGIPDRFSGSGSGTDFTLSINRLEPEDFAMYYCQHYGGLSRWTFGQGTKVEIK
notes: also called Fab 17T2
For the molecule B2, the “stoichiometry N” value in assay [2] worked out at 3 Fab per spike trimer.

As usually defined, the stoichiometry N is a count of units in the complex or per binding partner.
